Data from paper PMC11022410, “Synthesis and characterization of water-soluble C60–peptide conjugates” (Beilstein Journal of Organic Chemistry, 2024).

What was measured:
[1] = assay type: physicochemical; conditions: for Solubility in Milli-Q water (pH 7.0): from lyophilized solid, Milli-Q water pH 7.0, visual (transparent solution), also with sonication, 5b purified, 5c crude; for Solubilizing solvents (Table S1): list of the solvents used to solubilize the molecules; for Solubility in acidic eluent used for HRESIMS: mixture of MeOH and water containing 0.1% formic acid
Protocol: The water solubility of C60–peptide conjugates 5a–c was tested after the removal of any remaining solvent traces by lyophilization. […]
Solubility of C60–oligopeptides 5a–c
Table S1. List of the solubilizing solvents for compounds 5a-5c. […]

[2] = Photoinduced 1O2 generation by ESR spin trapping with 4-oxo-TEMP; conditions: green LED 527 nm, 1 min or 10 min; PS 40 μM, 4-oxo-TEMP 80 mM, 60 mM phosphate buffer pH 7.0, O2-bubbled, 296 K
Protocol: To preliminarily evaluate the synthesized C60–oligo-Lys (5a) as a PS, generation of singlet oxygen was measured by the ESR spin trapping method under irradiation of visible light (527 nm green LED). 4-Oxo-TEMP was used as a spin trapping reagent to form an adduct with ^1O2, i.e., 4-oxo-TEMPO, which was observed by ESR (Figure 7b).
Figure 7 a) X-band ESR spectra of the 4-oxo-TEMP adduct with ^1O2 generated by C60–oligo-Lys (5a) and rose bengal (RB), respectively, in aqueous solutions under irradiation with a green LED lamp (527 nm) for 1 min or 10 min. PS: 40 μM, 4-oxo-TEMP: 80 mM, in 60 mM phosphate buffer (pH 7.0). Measurement conditions: temperature 296 K, microwave frequency 10.03 GHz, microwave power 10 mW, receiver gain 5.0 × 10^4, modulation amplitude 1.00 G, modulation frequency 100 KHz, sweep time 83.89 s, number of scans: 1. b) Scheme for the photoinduced ^1O2 generation by C60 and reaction with spin trapping reagent 4-oxo-TEMP to form 4-oxo-TEMPO.
Detection of photoinduced 1O2 generation by ESR spin trapping
ESR measurements were carried out on a Bruker spectrometer equipped with a microwave bridge X-band ER. […]
1O2 generation was detected through the 1O2 adduct of 4-oxo-TEMP generated in an aqueous solution of C60−oligo-Lys (5a) and rose bengal as reference under irradiation by a green LED (527 nm). […]

NCCCC[C@H](NC(=O)[C@H](CCCCN)NC(=O)[C@H](CCCCN)NC(=O)[C@H](CCCCN)NC(=O)[C@H](CCCCN)NC(=O)CCCNC(=O)CC(CC(=O)NCCCC(=O)N[C@@H](CCCCN)C(=O)N[C@@H](CCCCN)C(=O)N[C@@H](CCCCN)C(=O)N[C@@H](CCCCN)C(=O)N[C@@H](CCCCN)C(=O)O)N1CC23c4c5c6c7c8c9c(c%10c%11c2c2c4c4c%12c5c5c6c6c8c8c%13c9c9c%10c%10c%11c%11c2c2c4c4c%12c%12c5c5c6c8c6c8c%13c9c9c%10c%10c%11c2c2c4c4c%12c5c6c5c8c9c%10c2c45)C73C1)C(=O)O (stereo partly shown) [5a, C60–oligo-Lys]
Solubility in Milli-Q water (pH 7.0) [1]: immediately and thoroughly solubilized | Solubilizing solvents (Table S1) [1]: water (pH 4.0–9.2), MeOH, DMSO | Solubility in nonpolar solvents ([1]; most nonpolar solvents, including toluene and CH2Cl2): not highly soluble | Solubility in other polar solvents ([1]; other polar solvents, including MeOH and DMSO): slightly soluble

N=C(N)NCCC[C@H](NC(=O)[C@H](CCCNC(=N)N)NC(=O)[C@H](CCCNC(=N)N)NC(=O)[C@H](CCCNC(=N)N)NC(=O)[C@H](CCCNC(=N)N)NC(=O)CCCNC(=O)CC(CC(=O)NCCCC(=O)N[C@@H](CCCNC(=N)N)C(=O)N[C@@H](CCCNC(=N)N)C(=O)N[C@@H](CCCNC(=N)N)C(=O)N[C@@H](CCCNC(=N)N)C(=O)N[C@@H](CCCNC(=N)N)C(=O)O)N1CC23c4c5c6c7c8c9c(c%10c%11c2c2c4c4c%12c5c5c6c6c8c8c%13c9c9c%10c%10c%11c%11c2c2c4c4c%12c%12c5c5c6c8c6c8c%13c9c9c%10c%10c%11c2c2c4c4c%12c5c6c5c8c9c%10c2c45)C73C1)C(=O)O (stereo partly shown) [5c, C60–oligo-Arg]
Solubility in Milli-Q water (pH 7.0) [1]: did not produce transparent solutions | Solubilizing solvents (Table S1) [1]: insoluble in most solvents | Solubility in acidic eluent used for HRESIMS [1]: slightly soluble | Solubility in polar and nonpolar solvents ([1]; most polar and nonpolar solvents): not soluble in most polar and nonpolar solvents | Solubility over the tested pH value range ([1]; tested pH value range 4.0–9.2): remained insoluble

O=C([O-])c1c(Cl)c(Cl)c(Cl)c(Cl)c1-c1c2cc(I)c(=O)c(I)c-2oc2c(I)c([O-])c(I)cc12.[Na+].[Na+] [rose bengal]
1O2 generation under visible light irradiation (ESR signal of 4-oxo-TEMPO) [2]: three peaks corresponding to 4-oxo-TEMPO were observed

O=C(O)CC[C@H](NC(=O)[C@H](CCC(=O)O)NC(=O)[C@H](CCC(=O)O)NC(=O)[C@H](CCC(=O)O)NC(=O)[C@H](CCC(=O)O)NC(=O)CCCNC(=O)CC(CC(=O)NCCCC(=O)N[C@@H](CCC(=O)O)C(=O)N[C@@H](CCC(=O)O)C(=O)N[C@@H](CCC(=O)O)C(=O)N[C@@H](CCC(=O)O)C(=O)N[C@@H](CCC(=O)O)C(=O)O)N1CC23c4c5c6c7c8c9c(c%10c%11c2c2c4c4c%12c5c5c6c6c8c8c%13c9c9c%10c%10c%11c%11c2c2c4c4c%12c%12c5c5c6c8c6c8c%13c9c9c%10c%10c%11c2c2c4c4c%12c5c6c5c8c9c%10c2c45)C73C1)C(=O)O (stereo partly shown) [5b, C60–oligo-Glu]
Solubility in Milli-Q water (pH 7.0) [1]: did not produce transparent solutions | Solubilizing solvents (Table S1) [1]: 25 mM TRIS buffer (pH > 8.3), 2% NaOD in D2O (pH 13.7) | Solubility in acidic eluent used for HRESIMS [1]: insolubility
